Data published in publication PMC5807052, “Robo1 Forms a Compact Dimer-of-Dimers Assembly” (Structure(London, England:1993), 2018).
Several values for one entry are separate records, joined by “and”; a condition that tells them apart may be missing. Identical values can stand only once.

What was measured:
[1] = target: the molecule itself; test: SEC-MALS; Superdex S200 HR 10/30, 200 mM NaCl, 20 mM Tris pH 7.5; 55 ul of Robo1 ECDa at 2.5 mg/ml from peak 1 of the SEC
[2] = target: the molecule itself; test: SEC; Superdex S200, 200 mM NaCl, 20 mM Tris pH 7.5; self-association of Robo1 ECD
[3] = target: the molecule itself; test: negative-stain EM reconstruction; GraFix-stabilised sample (fraction 12), ammonium molybdate stain, 100 kV; 3D map with D2 symmetry, 16 Å (FSC 0.143), filtered to 20 Å

B1: Robo1 ECDa (human Robo1 ectodomain, residues 61-853) (domain or fragment, UniProt Q9Y6N7-1 61-853, looked up)
chain: LRQEDFPPRIVEHPSDLIVSKGEPATLNCKAEGRPTPTIEWYKGGERVETDKDDPRSHRMLLPSGSLFFLRIVHGRKSRPDEGVYVCVARNYLGEAVSHNASLEVAILRDDFRQNPSDVMVAVGEPAVMECQPPRGHPEPTISWKKDGSPLDDKDERITIRGGKLMITYTRKSDAGKYVCVGTNMVGERESEVAELTVLERPSFVKRPSNLAVTVDDSAEFKCEARGDPVPTVRWRKDDGELPKSRYEIRDDHTLKIRKVTAGDMGSYTCVAENMVGKAEASATLTVQEPPHFVVKPRDQVVALGRTVTFQCEATGNPQPAIFWRREGSQNLLFSYQPPQSSSRFSVSQTGDLTITNVQRSDVGYYICQTLNVAGSIITKAYLEVTDVIADRPPPVIRQGPVNQTVAVDGTFVLSCVATGSPVPTILWRKDGVLVSTQDSRIKQLENGVLQIRYAKLGDTGRYTCIASTPSGEATWSAYIEVQEFGVPVQPPRPTDPNLIPSAPSKPEVTDVSRNTVTLSWQPNLNSGATPTSYIIEAFSHASGSSWQTVAENVKTETSAIKGLKPNAIYLFLVRAANAYGISDPSQISDPVKTQDVLPTSQGVDHKQVQRELGNAVLHLHNPTVLSSSSIEVHWTVDQQSQYIQGYKILYRPSGANHGESDWLVFEVRTPAKNSVVIPDLRKGVNYEIKARPFFNEFQGADSEIKFAKTLEEAPSAPPQGVTVSKNDGNGTAILVSWQPPPEDTQNGMVQEYKVWCLGNETRYHINKTVDGSTFSVVIPFLVPGIRYSVEVA
notes: Robo1, human, ectodomain construct ECDa, residues 61-853 of NP_002932; lacks the last beta-strand of Fn3; Cloned into a modified pTT3 vector that encodes a signal peptide and a C-terminal hexa-histidine tag; also called pTT3_Robo1_ECDa; source: HEK-293T, transient expression, secreted, purified (Ni-sepharose, SEC Superdex S200)
Question: B1 was tested. Which “stoichiometry N” value [1] did it give?
Answer: 1

Question: And the “stoichiometry N” value [2]?
Answer: 4 and 2

B2: Robo1 ECDb (human Robo1 whole ectodomain, residues 61-864) (domain or fragment, UniProt Q9Y6N7-1 61-864, looked up)
chain: LRQEDFPPRIVEHPSDLIVSKGEPATLNCKAEGRPTPTIEWYKGGERVETDKDDPRSHRMLLPSGSLFFLRIVHGRKSRPDEGVYVCVARNYLGEAVSHNASLEVAILRDDFRQNPSDVMVAVGEPAVMECQPPRGHPEPTISWKKDGSPLDDKDERITIRGGKLMITYTRKSDAGKYVCVGTNMVGERESEVAELTVLERPSFVKRPSNLAVTVDDSAEFKCEARGDPVPTVRWRKDDGELPKSRYEIRDDHTLKIRKVTAGDMGSYTCVAENMVGKAEASATLTVQEPPHFVVKPRDQVVALGRTVTFQCEATGNPQPAIFWRREGSQNLLFSYQPPQSSSRFSVSQTGDLTITNVQRSDVGYYICQTLNVAGSIITKAYLEVTDVIADRPPPVIRQGPVNQTVAVDGTFVLSCVATGSPVPTILWRKDGVLVSTQDSRIKQLENGVLQIRYAKLGDTGRYTCIASTPSGEATWSAYIEVQEFGVPVQPPRPTDPNLIPSAPSKPEVTDVSRNTVTLSWQPNLNSGATPTSYIIEAFSHASGSSWQTVAENVKTETSAIKGLKPNAIYLFLVRAANAYGISDPSQISDPVKTQDVLPTSQGVDHKQVQRELGNAVLHLHNPTVLSSSSIEVHWTVDQQSQYIQGYKILYRPSGANHGESDWLVFEVRTPAKNSVVIPDLRKGVNYEIKARPFFNEFQGADSEIKFAKTLEEAPSAPPQGVTVSKNDGNGTAILVSWQPPPEDTQNGMVQEYKVWCLGNETRYHINKTVDGSTFSVVIPFLVPGIRYSVEVAASTGAGSGVKS
notes: Robo1, human, whole ectodomain construct ECDb, residues 61-864 of NP_002932; Cloned into a modified pTT3 vector that encodes a signal peptide and a C-terminal hexa-histidine tag; also called pTT3_Robo1_ECDb; source: HEK-293T, transient expression, secreted, purified (Ni-sepharose, SEC Superdex S200)
Question: Does B2 bind [3]?
Answer: binds
